According to the nanobody polyreactivity screen of Harvey et al. (2022):

Assay: yeast display, Sf9 membrane polyspecificity reagent, FACS + sequencing; frameworks hold sequencing errors
Procedure, shortened: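 Galactose induction of a Saccharomyces cerevisiae BJ5465 synthetic nanobody display library ran 36–48 hours. The cells were then stained for 1 hour at 4 °C with 10% biotinylated, detergent-solubilized Sf9 membrane reagent, pulled down on streptavidin microbeads and FACS-sorted into low and high (top ~1%) gates on expression and reagent-binding fluorescence. Labels for polyreactivity follow the gate of origin.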

Row | Sequence | polyreactivity (PSR sort gate)
1 | QFQLVESGGGLVQAGGSLRLSCAASGSTFKYSAMGWYRQAPGKERELVAIIRSGGRTNYADSVKGRFTISRDNAKNTVYLQMNSLKPEDTAVYYCNARYGRYYGAYEYWGQGTQVTVSS | high polyreactivity
2 | QVQLVESGGGLVQAGGSLRLSCAASGITFWTYAMGWYRQAPGKERELVAAISKSGGSTYYADSVKGRFTISRDNAKNTVYLQMNSLKPEDTAVYYCAAKGLRYRDIDYDYWGQGTQVTVSS | low polyreactivity
3 | QVQHVESGGGIVQAGGSLRLSCAASGRTFGPYAMGWYRQAPGKEWELVAVISGRGTSTYYADSVKGRFTISRDNAKNTVYLQMNSLKPEDTAVYYCKADYGSWFWGFDYWGQGTQVTVSS | low polyreactivity
4 | QVQLQESGGGVQAGGSLRLSCAASGSISAPILMGWYRQAPGKERELVAGIGGGANTYYADSVKGRFTFSRDNAKYTVYLQMYSLKPEDTAVYYCAAGDYYWTNFGYWGQGTQVTASS | high polyreactivity
5 | QVQLVESGGGLVQAGGSLRLSCAASGYNFAYYAMGWYRQAPGTERELVAAISWSGSSTYYADSVKGRFTISRDNAKNTVYLQMNSLKPEDTAVYYCAKGYTSYNLGKYGYCGQGTQVTVSS | low polyreactivity
6 | QVQLVETGGGLVQAGGSLRLSCAASGFIFYNAMGWYRQAPGKERELVAAISSGGNTNYADSVKGRFTISRDNAKNTVYLQMNSLKPEDTAVYYCNAGLYQYEAWAYYIRYDYWGQGTQVTVSS | low polyreactivity
7 | QVQLVESGGGLVQAGGSLRLSCAASGRIFRYYAMGWYRQAPGKERELVAAITRGGSTNYADSVKGRFTISRDNAKNTVYLQMNSLIPEDTAVYYCNKYPYFVYGDYGYWGQGTQVTVSS | high polyreactivity
8 | QVQLVESGGGLLQAGVTLRLSCAPSGFTQDSYSMGWYRQAPGKERELVARIRWSGGSTYYADSVKGRFTISRDNAKNTVYLQMNSLKPEDKAVYYCAADRPYYFLPYSTYTNYDSWGQGTQVTVSS | low polyreactivity
9 | QVQLVESGGGLVQAGGSLRLSCAASGRIFNRNAMGWYRQAPGKERELVAAISSDTSTNYADSVKGRFTISRDNAKNTVYLQMNSLKPEDTAVYYCAADVRRYDGYDYWGQGTQVTVSS | low polyreactivity
10 | QVQLVESGGGLVQAGGSLRLSCAASGIIFWFYAMGWYRQAPGKERELVAAISGDGDSTYYADSVKGRFTISRDNAKNTVYLQMNSLKPEDTAVYYCAAEWDPVFATDEDDYWGQGTQVTVSS | low polyreactivity
11 | QVQLVESGGGLVQAGGSLRLSCAASGRIFYRNAMGWYRQSPGKERELVAAINWSGGSTYYAYSVKGRFTISRDNAKNTVYLQMNSLKPEDTAVYYCATGYRQGEYDYWGQGTQVTLSS | low polyreactivity
12 | QVQLVESGGGLVQAGGSLRFSCAASGRIFTPYAMGWYRQAPGKERELVAVIRDGSTYYADSVKGRFTISRDNAKNTVYLQMNSLKPEDTAVYYCRYDIWVWWSGAYDYWGQGTQVTVSS | low polyreactivity
13 | QVQLVESGGGLVQAGGSLRLSCAASGITIVLYTMGWYRQAPGKEREFVAGITRGGSTYYADSVKGRFTISRDNAKNTVYLQMNSLKPEDTSVYYCAARPRFLRASVEYDYWGQGTQVTVSS | high polyreactivity
14 | QVQLVESGGGLVQAGGSLRLSCAASGNTIKDYTMGWYRQAPGKERELVASINSGGSTNYADSVKGRFTISRDNPKNTVYLQMNSLKPEDTAVYYSAKRAWSDYNPIDYWGQGTQVTVSS | low polyreactivity
15 | QVQLVESGVGLVQAGGSLRLSCAASGIILYRYSMGWYRQAPGKEREFGAAISRTGASTYYADSVKGRFTISRDNAKKSVYLQMNSRKPEDTAVYYCDVKALDQARYGKSGYWGQGTQVSVSS | high polyreactivity
16 | QVQLVESGGGIVQAGGSLRLSCAASGFTCGPYAMGWYRQAPGKERELVATIRSGDSTNYADSVKGRFTISRDNAKNTVYLQMNSLKPEDTAVYYCARDARASARRKRYDYWGQGTQVTVSS | low polyreactivity
17 | QVQLVESGGGLVQAGGSLRLSCAASGRTSYVYAMGWYRQAPGKERELVATISFRGGSTYYADSVKGRFTISRDNAKNTVYLQMNSLKPEDTAVYYCAATTPYYTPRRRNEYWGQGTQVTVSS | high polyreactivity
18 | QVQLVESGGGLVQAGVSLRISCAASGSTFRGYVMGWYRPAPGKERELVAAISRSGTSTYYADSVKGRFTISRDNAKNTVYLQINSLKPEDTAVYYCAAQLYGHGEDYWGQGTQVTVSS | high polyreactivity
19 | QVQLVESGGGLVQARGSLRLSCAASGRTFGPYAMGWYRQAPGKERELVAAISSSEGSTYYADSVKGRFTISRDIAKYSVYLQMNSMKPEDTAVYYCNARYYLWSTTRWYGYDYWGQGTQVTVSS | high polyreactivity
20 | QVQHVESGGGLVQAGGSLRLSCAASGRIFRDNAMGRNRQAPGKEREVVAAISRRGGSTYYADSVKGRFTISRDNAKNTVYLQLNSLKPEDTAVYYCNKTTHSRTFRYDYWGQGTQVTVSS | low polyreactivity
21 | HVHLVESGGGLVQAGGSLPLSCAASGFIISHYTMGWYRQAPGKERELVAGISWSGGNTYYADFVKGRFTISRDHAKNTVYLQMNSLKPEDTAVYYCNADWIGVPLAYDYWGQGTQVTVSS | low polyreactivity
22 | QVQLVESGGGLVQAGGSLRLSCAASGRIFYFYAMGWYRQAPGKERELVASISSGSSTNYADSVKGRFTISRDNAKNTVYLQMNSLKPEDTAVYYCAAQPWHGSRARSYYWGQGTQVTVSS | high polyreactivity
23 | QVQLVESGGGLVQAGGILRLSCAASGSTFTYNVMGWYRQAPGKERYLVAAISWSGGSTFYADSVKGRFTISRDNAKNTVYLQMNRLKPEDTAVYYCNKDHLVYPSEFYYWGQGTQVTVSS | low polyreactivity
24 | QVQLVESGGGLVQAGGSLRLSCAASGRTFKYYTMGWYRQAPGKERELVAAISGSGSRTYYADSVKGRFTISRDNAKNTVYLQMNSLKPEDTAVYYCAARRRISSGYSGPPWIYGYWGQGTQVTVSS | high polyreactivity
25 | QVQLVESGGGLVQAGGSLRLSCAPSGFTFGIYAMGWYRQAPGKERELLADINVSDGSTYYADSVKRRFTISRDNAKNTVYLQMNSLKPEDTAVYYSAAYVYDTIYTSYREYDYWGQGTQVTVST | low polyreactivity
26 | QVQLVESGGGIVQAGGSLRLSSAASGSIIFYYAMGWYRQPRGKEREFVAAITRSGVRTYYADSVKGRFTISRDNAKNTVYLQMNSLKPEDTAVYYCNDDYGFYRPVLMGFWGQGTQVTVSS | low polyreactivity
27 | QVQLVESGGGLVQAGGSLRLSCAASGIIFRGYAMGRNRHAPGKERELVARISTSGGSTYYADSVKGRFTISRDNAKNTVYLQMNSLKPEDTAVYYCAATRSFLTSWYYRSTSTRDYWGQGTQVTVSS | high polyreactivity
28 | QDQLVESGGGLVQAGGSLRLSCAASGRTFVKYAMGWYRQAPGKERELVAAISRRGGSTYYADSVKGRFTISRDNAKNTVYLQMNSLKPEDTAVYYCAVSIGRYPYRYGYWGQGTQVTVSS | high polyreactivity
29 | QVQLVESGGGLDQAGGSLRLSCAASVNIFIYNTMGWYRQAPGKERELVAAITSDDSTKYADSVKGRFTISRDNAKNPVYLQMNTLKPEDTAVYYCAKRYYHPYWIDYDYWGQGTHVTVSS | low polyreactivity
30 | QVQLVESGGGLVQAGGSLRLSCAASGFTFSTYAMGWYRQAPGKERELVAAISSGDSTYADSVKGRFTISRDNAKNTVYLQMNSLKPEDTAVYYCAAYVSVPYRNYYYWGQGTQVTVSS | high polyreactivity
